# From the nanobody polyreactivity screen of Harvey et al. (2022)
# Assay: yeast display, Sf9 membrane polyspecificity reagent, FACS + sequencing; frameworks hold sequencing errors
# Method in brief: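 A nanobody's polyreactivity label depends on the gate it was sorted from. Yeast display cells were stained with 10% biotinylated, detergent-solubilized Sf9 membrane reagent for 1 hour at 4 °C, enriched on streptavidin microbeads and sorted by FACS. The low and high (top ~1%) gates were set on anti-HA fluorescence for expression and streptavidin fluorescence for reagent binding.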
row,Sequence,polyreactivity (PSR sort gate)
1,QVQLVESGGGLVQAGRSLRLSCAASGSTFKVYAMGWYRQAPGKERELVAAISASDGSTYYPDSVKGRFTISRDNAKKTVYVQMYRLKPEDTAVYYFAAVLYSDKATYDYWGQGTQVTVSS,low polyreactivity
2,QVQLVESGGGLVQAGGSLRLSCAASGSIFYSNAKGWYRQAPGKERELVATITWSGGRTYYADSVKGRFTISRDNAKNTVYLQMNILKPEDTAVYYCAAVSIYWGQGTQVTVSS,low polyreactivity
3,QVQLVESGGGLVQAGGSLRLSCAPSGSIFLHYAMGRYRQAPGKERDLVAAISRSGGRTYYADSVKGRFTISRDNAKNTVYLQMNSLKPEDTAVYYCAARVPRYRKDSVWAYYYWGQGTQVTVSS,high polyreactivity
4,QVQLVESGGGLVQAGGSLRLSCAASGPIFTSNAMGWYRQAPGKERELVAAISRRGTRTYYADSVKGRFTISRDNAKNTVYLQMNSLKPEDTAVYYCAATTGEQEYYWGQGTQVTVSS,high polyreactivity
5,QVQLVESGAGLVQAGGSLRISCDASGSIFWSYAMGWYRQAPGKERELVADITGIGGSTYYADSVKGRFTISRDNAKNTVYLQMNSLKPEDTAVYYCAADTWFTAQTYNFYYRGQGTQVTVSS,high polyreactivity
6,QVQLVESGGGVVQAGGSLRLSCAATGSTFWWYAMGWYRQAPGKERELVADITTGGSTNYADSVKGRFTISRDNAKNTVYLQMNSLKPEDTAVYYCNADGVTPYTWRLRYFKYHFDYWGQGTQVTVSW,low polyreactivity
7,QVQLVESGGGLVQAGGSLRLSCAASGSIFYLNAMGWYRQAPGKERELVATISNGGSTNYADSVKGRFTISRDNAKNTVYLQMNSLKPEDTAVYYCAAASGGTVVGEGDYWGQGTQVTVSS,low polyreactivity
8,QVQLVESGGGLVQAGGSLRLSCAASGSTFYYNAMGWYRQAPGKERELVAAITFTGGSTYADSVKGRFTISRDNAKNTVYLQMNSLKPEDTAVYYCAATIQGHDYLGTGYDYWGQGTQVTVSS,low polyreactivity
9,QVQLVETGGGLVQAGGSLRLSCAASGYNLNSNAMGWYRQAPGKEREFVASITESGGTTYYADSVKGRFTISRDNAKNTVYLQMNSLKPEDTAVYYCAADLVDWWYSSDLYDYWGQGTQVTVSS,high polyreactivity
10,QVQLVESGGGLVQAGGSLRLSCAASGSISYQNAMGWYRQATGKERELVAAISGDGDSMYYADSVKGRFTISRDNAKNTVYLQMNSLKPEDTAVYYCAAEPNVYFSVFVLFPSDYWGQGTQVTVSS,low polyreactivity
11,QVQLVESGGGLVQAGGSLRLSCAASGRTFARYAMGWYRQAPGKERELVASIRRGTSTNYADSVKGRFTISRDNAKNTVYLQMNSLKPEDTAVYYCAARVGTEGYHGDYWGQGTQVTVSS,high polyreactivity
12,QVQLVESGGGLVQAGGSLRLSCAASGFIFDNYAMGWYRQAPGKERELVAAISRSGGSTYYADSVKGRFTISRDNAKNTVYLQMNSLKPEDTAVYYCAARGKFGIVRYDYWGQGTQVTVSS,high polyreactivity
13,QVQLVESGGGLVQAGGSLRLSCAASGIIFGRYAMGWYRQAPGKERELVAAISTSGGSTYYADSVKGRFTISRDNAKNTVYLQMNSLKPEDTAVYYCAARHREAQRRYDYWGQGTQVTVSS,high polyreactivity
14,QVQLVESGGGLVQAGGILRLSCAASGRIFQHYPMGWYRQAPGKERELVAAISRSGDSTYYADSVKGRFTISRDNAKNTVYLQMNSLKPEDTAVYYCKIVRYSFLYDSWGQGTQVTVSS,high polyreactivity
15,QVQLVESGGGLVQAGGSLRLSCAASGSIFGFNAMGWYRQAPGKERELVAAISGRGTGTYYADSVKGRFTISRDNAKNTVYLQMNSLKPEDTAVYYCYTYYYWGQGTQVTVSS,high polyreactivity
16,QDQLEESVGGLVQAGGSLRLSCAASGRIFVYNAMGWYRQAPGKERELVAAISKGGGSTYYADSVKGRFTISRDNAKNTVYLQMNSLKPEDTAVYYCAAVVSGRYWGYYSWGQGTQVTVSS,high polyreactivity
17,QVQLVESGGGLVQAGGSLRLSCAASGRTFRFNAMGWYRQAPGKEREFVAAITSGGGTYYADSVKGRFTISRDNGKNTVYLQMNSLKPEDTAVYYCATVGKVHHRLVAMDYWGQGTQVTVSS,low polyreactivity
18,QVQLVESGGALVQAGGSIRLSCAASGFISRKNALGWYSQAPGKERELVATITKSGDTTYYADSVKGRFTISRDNAKNTVYLQMNSLKPEETAVYYCAAPLYYIGSWDYYVRYIYDYWGQGTQVTVSS,low polyreactivity
19,QVQLVESGGGLVQAGGSLRLSCAASGFIFRRYAMGWYRQAPGKERELVAAIRWDDGNTYYADSVKGRFTISRDNAKNTVYLQMNSLKPEDTAVYYCYADKWSSTDDWLYDYWGQGTQVTVSS,low polyreactivity
20,QVQLVESGGGLVQAGGSLRLSCAASGRILGRNAMGWYRQAPGKERELVATITSRGGSTYYADSVKGRFTISRDNAKNTVYLQMNSLKPEDTAVYYCAAPRYYYYSYDYWGQGTQVTVSS,high polyreactivity
21,QVQLVESGGGLVQAGGSLRLSCAASGSTFKQYTMGWYRQATGKERELVAAINRGGTSTNYADSVKGRFTISRDNAKNTVYLQMNSLKPEDTAVYYCNAGYSWGRYYYWGQGTQVTVSS,low polyreactivity
22,QVQLVESGGGLVQAGGSLRLSCAASGRIFRFYAMGWSSQAPGKERELVAAISTSGRTNYADSVKGRFTISRDNAKNTVYLQMNSLKPEDTAVYYCAAGTVLQGWSGAYGYWGQGTQVTVSS,high polyreactivity

row,Sequence,polyreactivity (PSR sort gate)
1,QVQLVESGGGLVQAGGSLRLSCAASGRTFQVYAMGWYTQAPGKERELVADITGRGGITYYADSVKGRFTISRDNAKNTVYLQMNSLKPEDTAVYYCAAERYNYKTIYRYDYWGQGTQVTVSS,high polyreactivity
2,QVQLVESGGGLVQAGGSLRLSCGASGITFVYYTMGWYRQAPGKERELVAAISKNGGSTYYADSVKGRFTISRDNAKNTVYLQMNSLKPEYTAFSYCAAEEGYRWVRYNYWGQGTQVTVSS,high polyreactivity
3,QVQLVESGGGLVQAGGSLRLSCSASGFTFRWYTMGWYTQSPGNERELVAAINYSGGSTYYADSVKGRFTISRDNAKNTVYLQMNSLKPEDTAVYYCAAQIYFPGRRYDYWGQGTQVTVSS,high polyreactivity
4,QVQLQESGGGLVQAGGSLRLSCAASGSISGPHVMGWYRQAPGKVREFVAAINVGANTYYADNVKGRFTISRDNAKNTVYLQMNSLKPEDTAVYYCAAAYYGDIGHEYWGQGTQVTVSS,low polyreactivity
5,QVQLVESGGGLVQAGGSLRLSCAASGLTFRYYAMGWYRQAPGKERELVATITGSGGSTYYADSVKGRFTISRDNAKNTVYFQMNSLNPEYTAVYYCAATVRVYDYWGQGTQVNVSS,high polyreactivity
6,QVPLVESGGGLVQAGGSLRLSCAASGGIFYSYAMGWYRQAPGKERELVPAIRTNGGTTYYADSVKGRFTISRDNAKNTVYLQLNSLKQEDTAVYYCDALPGSYYDRGEYDYWGQGTQVTVSS,low polyreactivity
7,QVQLVESGGGLVQAGGSLRLSCAASGRIFYGNAMGWYRQPPGKERELFAGITRSSGTSTYYADSVKVRFTISRDNAKYTVYLQMNSMNPEDTAVYYCAAPPDSYYYYKVPVVPYDYWGQGTQVTVSS,low polyreactivity
8,QVQLLESGGGLVQAGGSLRLSCAASGSIFEGNGMGWYRQAPGKERELVAAITFRSGSTYYADSVKGRFTISRDNAKNTVYLQMNSLKPEDTAVYYCAADEYYEVSAYDYWGQGTQVTVSS,low polyreactivity
9,QVQLVESGGGLVQAGGSLRLICAASGRIFDFYAMGWYRQAPGKDRELVAAITTGDSTYYADSVKGRFTISRDNAKNTVYLQMNSLKPEDTAVYDCAAVGHGGWDGDDYWGQGTQVTVSS,low polyreactivity
10,QVQLVESGGGLVQAGGSLRLSCAASGSTFRYYSMGWYRQAPGKERELVASISSGGSTNYADSVKGRFTISRDNAKNTVYLQMNSLKPGDTAVYYCNADSWTVNRRYYYYRYEYWGQGTQVTVSS,low polyreactivity
11,QVQLVESGGGLVQAGGSLRISCAASGFTFYRYAMGWSIPAPGKERELVAAISSHGDSTYYADSVKGRFTISRDNAKNTVYLQMNSLKPEDTAVYYCNVETLYGYFLHFYLRYYHWGQGTQVTVSS,high polyreactivity
12,QVQLVESGGGLVQAGGSLRLSCAASGRTFNRYAMGWYRQAPGKERELVAVITSDGRTNYADSVKGRFTISRDNAKNTVYLQMNSLKPEDSAVYYCNKRSALSFVYDFDYWGQGTQVTVSS,low polyreactivity
13,QVQLVESGGGLVQAGGSLRLSCAASGRTFTINAMGWYRQAPGKERELVATISYSGGSTRYADSVKGRFTISRDNAKNTVYLQMNSLQPDDTAVYYCAADAGYYGRWYGHGYGYWGQGTQVTVSS,high polyreactivity
14,QVQLVESGGGLVQAGGSLRLSCAASGLIFWYYTMGWYRPAPGKERELVAAITIGGSTYYADSVKGRFTISRDNAKNTVYLQMNSLKPEDTAVYYCNTRRGRSQGGRYEYDYWGQGTQVTVSS,low polyreactivity
15,QVQLVESGGGLVQAGGSLRLSCAASGRNFGPYAMGWSRQAPGKERELVASITRSGGRTYYADSVKGRYTISRDNAKNTVYLQMNSLKPEDTAVYYCAAGGFSKSYYYWGQGTQVTVSS,high polyreactivity
16,QVQLVESGGGLVQAGGSLRLSCAPSGRIFDYYAMGWYRQAPGKESELVAAISGSGGSTYYADSVKGRFTISRDNAKNTVYLQMNSLKPEHTAVYYCAYGYLYCYDYWGQGTQVTVSS,low polyreactivity
17,QVQLVETGGGLVQAGGSLRLSCAASGSIFTYYAMGWYRQAPGKEREFVAGISWSGGRTYYADSVKGRFTISRDNAKNTVYLQMNSLKPEDTAVYYCAAEIHDRFDSWGQGTQVTVSS,low polyreactivity
18,QVQLVESGGGLVQAGGSLRLSCAASGSTFGRNAMGWYRQAPGKERELVAAITASGGTTYYADSVKGRFTISRDNAKNTVYLQMNSLKPEETAVYYCARAGHFSFKYDYWGQGTQVTVSS,low polyreactivity
19,QVQLVESGGGLVQAGGSLRLSCAASGSTFDKYPLGWYRQAPGKERELVAAITWGGGSTYYADSVKGRFTISRDNAKNTVYLQMNSLKPEDTAVYYCAAEQGSSVLYDSWGQGTQVTVSS,low polyreactivity
20,QVQLVESGGGLVQAGGSLRLSCAASGRIFPYNAMGWYRHAPGKERELVAAITWSGGRTYYADSVKGRFTISRDNAKNTVYLQMNSLKPEDTAVYYCAASYRGRTNDYWGQGTQVTVSS,high polyreactivity
21,QVQLVESGGGLVQAGGSLRLTCAASGRIFGTNAMGWYRQAPGKERELVADITSGGSTNYADSVKGRFTISRDNAKNTVYLLMNSLKPEDTAVYYCAADVIGDLRWYRDEYWGQGTQVTVSS,low polyreactivity
